In publication PMC9482650, “Quantitative fragmentomics allow affinity mapping of interactomes” (Nature Communications, 2022):

T1: CARD11, Q9BXL7
T1 sequence (Q9BXL7 662-765, limits assumed, looked up): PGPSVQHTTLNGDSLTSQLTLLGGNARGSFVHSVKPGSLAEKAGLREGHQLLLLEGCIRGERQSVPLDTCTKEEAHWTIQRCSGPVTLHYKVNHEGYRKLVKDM

T2: DFNB31_1, Q9P202
T2 sequence (Q9P202 135-233, limits assumed, looked up): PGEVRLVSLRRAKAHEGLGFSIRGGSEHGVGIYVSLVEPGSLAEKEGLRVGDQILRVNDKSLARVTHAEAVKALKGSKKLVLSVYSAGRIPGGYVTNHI

T3: DFNB31_2, Q9P202
T3 sequence (Q9P202 274-371, limits assumed, looked up): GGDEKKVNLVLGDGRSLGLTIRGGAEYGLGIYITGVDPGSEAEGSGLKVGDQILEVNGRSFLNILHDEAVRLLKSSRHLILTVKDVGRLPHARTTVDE

T4: GRIP1_4, Q9Y3R0
T4 sequence (Q9Y3R0 467-571, limits assumed, looked up): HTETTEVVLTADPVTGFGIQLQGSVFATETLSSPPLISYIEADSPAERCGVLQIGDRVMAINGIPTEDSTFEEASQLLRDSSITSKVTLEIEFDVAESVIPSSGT

T5: LNX2_2, Q8N448
T5 sequence (Q8N448 334-432, limits assumed, looked up): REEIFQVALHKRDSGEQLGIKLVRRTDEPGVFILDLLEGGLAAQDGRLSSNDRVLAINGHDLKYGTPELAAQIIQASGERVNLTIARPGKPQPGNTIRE

T6: MPP2, Q14168
T6 sequence (Q14168 180-250, limits assumed, looked up): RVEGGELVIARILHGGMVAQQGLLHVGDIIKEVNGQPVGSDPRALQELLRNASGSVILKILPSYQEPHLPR

T7: PARD3B_1, Q8TEW8
T7 sequence (Q8TEW8 196-299, limits assumed, looked up): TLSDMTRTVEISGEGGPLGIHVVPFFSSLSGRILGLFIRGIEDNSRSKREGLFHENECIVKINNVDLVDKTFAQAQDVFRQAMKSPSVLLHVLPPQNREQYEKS

T8: PDZD7_3, Q9H5P4
T8 sequence (Q9H5P4 857-944, limits assumed, looked up): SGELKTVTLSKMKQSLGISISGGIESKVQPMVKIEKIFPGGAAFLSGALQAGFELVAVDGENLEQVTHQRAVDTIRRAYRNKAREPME

T9: PTPN13_1, Q12923
T9 sequence (Q12923 1088-1188, limits assumed, looked up): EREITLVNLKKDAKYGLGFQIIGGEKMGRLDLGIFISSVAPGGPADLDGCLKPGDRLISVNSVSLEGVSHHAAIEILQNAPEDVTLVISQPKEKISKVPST

T10: SHANK1, Q9Y566
T10 sequence (Q9Y566 658-767, limits assumed, looked up): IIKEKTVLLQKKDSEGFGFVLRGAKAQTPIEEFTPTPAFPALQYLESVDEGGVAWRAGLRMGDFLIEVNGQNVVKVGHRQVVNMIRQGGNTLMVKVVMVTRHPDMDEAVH

T11: SIPA1L2, Q9P2F8
T11 sequence (Q9P2F8 945-1036, limits assumed, looked up): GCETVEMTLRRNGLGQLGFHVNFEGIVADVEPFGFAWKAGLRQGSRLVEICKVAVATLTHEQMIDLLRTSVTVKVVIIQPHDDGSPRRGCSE

T12: SNTG2, Q9NY99
T12 sequence (Q9NY99 68-166, limits assumed, looked up): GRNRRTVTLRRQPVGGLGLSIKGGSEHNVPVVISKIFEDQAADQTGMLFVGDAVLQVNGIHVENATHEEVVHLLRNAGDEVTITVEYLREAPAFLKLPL


Columns and labels:
Experiment in all cases: holdup assay
Parameters in all cases: key: below the threshold = too weak to quantify, mostly under pKd 3.1 to 4
Details in all cases: plain residues with an end cap or a label only (N-terminal biotin on a linker: ado-ado)
CARD11, Q9BXL7 = molecular target: T1, CARD11, Q9BXL7
DFNB31_1, Q9P202 = molecular target: T2, DFNB31_1, Q9P202
DFNB31_2, Q9P202 = molecular target: T3, DFNB31_2, Q9P202
DLG4_1, P78352 = molecular target: DLG4_1, P78352
GIPC2, Q8TF65 = molecular target: GIPC2, Q8TF65
GRASP, Q7Z6J2 = molecular target: GRASP, Q7Z6J2
GRID2IP_2, A4D2P6 = molecular target: GRID2IP_2, A4D2P6
GRIP1_4, Q9Y3R0 = molecular target: T4, GRIP1_4, Q9Y3R0
IL16_1, Q14005 = molecular target: IL16_1, Q14005
Inadl_9, Q8NI35 = molecular target: Inadl_9, Q8NI35
LDB3, O75112 = molecular target: LDB3, O75112
LNX1_1, Q8TBB1 = molecular target: LNX1_1, Q8TBB1
LNX2_2, Q8N448 = molecular target: T5, LNX2_2, Q8N448
MAGI1_1, Q96QZ7 = molecular target: MAGI1_1, Q96QZ7
MAGI2_6, Q86UL8 = molecular target: MAGI2_6, Q86UL8
MPP2, Q14168 = molecular target: T6, MPP2, Q14168
NHERF2_2, Q15599 = molecular target: NHERF2_2, Q15599
NHERF4_1, Q86UT5-2 = molecular target: NHERF4_1, Q86UT5-2
PARD3B_1, Q8TEW8 = molecular target: T7, PARD3B_1, Q8TEW8
PDZD7_3, Q9H5P4 = molecular target: T8, PDZD7_3, Q9H5P4
PTPN13_1, Q12923 = molecular target: T9, PTPN13_1, Q12923
SCRIB_3, Q14160 = molecular target: SCRIB_3, Q14160
SHANK1, Q9Y566 = molecular target: T10, SHANK1, Q9Y566
SIPA1L2, Q9P2F8 = molecular target: T11, SIPA1L2, Q9P2F8
SNTG2, Q9NY99 = molecular target: T12, SNTG2, Q9NY99

Sequence of IL16_1, Q14005 (Q14005 210-306): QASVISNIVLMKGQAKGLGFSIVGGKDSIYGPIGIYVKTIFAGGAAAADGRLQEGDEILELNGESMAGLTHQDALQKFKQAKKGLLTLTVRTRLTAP
Sequence of DLG4_1, P78352 (P78352 62-152): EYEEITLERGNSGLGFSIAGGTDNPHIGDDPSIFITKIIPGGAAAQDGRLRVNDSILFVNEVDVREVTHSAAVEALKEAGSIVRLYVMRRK
Sequence of MAGI2_6, Q86UL8 (Q86UL8 1141-1229): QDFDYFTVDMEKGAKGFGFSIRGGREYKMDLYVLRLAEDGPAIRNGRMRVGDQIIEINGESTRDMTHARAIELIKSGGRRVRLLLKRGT
Sequence of Inadl_9, Q8NI35 (Q8NI35 1530-1615): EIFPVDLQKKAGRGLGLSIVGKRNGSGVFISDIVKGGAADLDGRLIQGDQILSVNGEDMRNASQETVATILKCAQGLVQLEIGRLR
Sequence of LNX1_1, Q8TBB1 (Q8TBB1 261-371): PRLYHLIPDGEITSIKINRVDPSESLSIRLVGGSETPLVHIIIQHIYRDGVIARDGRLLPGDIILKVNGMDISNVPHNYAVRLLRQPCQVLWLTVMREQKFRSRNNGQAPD
Sequence of NHERF4_1, Q86UT5-2 (Q86UT5 other isoform, or with tags, fused parts or gaps): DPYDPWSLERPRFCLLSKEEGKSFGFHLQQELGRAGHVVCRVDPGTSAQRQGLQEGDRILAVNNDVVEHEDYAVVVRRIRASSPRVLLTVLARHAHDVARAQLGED
Sequence of NHERF2_2, Q15599 (Q15599 142-238): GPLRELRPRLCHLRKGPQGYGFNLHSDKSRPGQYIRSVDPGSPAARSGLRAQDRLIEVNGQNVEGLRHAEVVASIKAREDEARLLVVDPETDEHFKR
Sequence of SCRIB_3, Q14160 (Q14160 999-1103): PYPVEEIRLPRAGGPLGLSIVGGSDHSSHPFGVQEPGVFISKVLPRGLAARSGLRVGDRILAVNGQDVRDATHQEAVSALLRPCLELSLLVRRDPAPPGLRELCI
Sequence of GRID2IP_2, A4D2P6 (A4D2P6 272-370): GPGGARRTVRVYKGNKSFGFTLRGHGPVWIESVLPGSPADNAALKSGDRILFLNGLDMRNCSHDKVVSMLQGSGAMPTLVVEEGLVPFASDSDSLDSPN
Sequence of MAGI1_1, Q96QZ7 (Q96QZ7 1-106): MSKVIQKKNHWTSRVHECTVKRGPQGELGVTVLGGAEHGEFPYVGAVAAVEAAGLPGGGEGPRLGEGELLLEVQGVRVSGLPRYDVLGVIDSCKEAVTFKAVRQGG
Sequence of LDB3, O75112 (O75112 1-94): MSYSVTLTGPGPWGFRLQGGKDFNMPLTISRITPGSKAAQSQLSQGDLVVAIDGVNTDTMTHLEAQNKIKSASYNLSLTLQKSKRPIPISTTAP
Sequence of GIPC2, Q8TF65 (Q8TF65 112-203): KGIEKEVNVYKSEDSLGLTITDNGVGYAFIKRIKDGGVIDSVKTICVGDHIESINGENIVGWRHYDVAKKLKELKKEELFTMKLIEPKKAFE
Sequence of GRASP, Q7Z6J2 (Q7Z6J2 96-193): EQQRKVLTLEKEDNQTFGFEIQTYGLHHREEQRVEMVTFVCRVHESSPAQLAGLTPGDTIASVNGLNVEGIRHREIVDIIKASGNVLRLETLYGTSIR

| Binder | pKd (CARD11, Q9BXL7) | pKd (DFNB31_1, Q9P202) | pKd (DFNB31_2, Q9P202) | pKd (DLG4_1, P78352) | pKd (GIPC2, Q8TF65) | pKd (GRASP, Q7Z6J2) | pKd (GRID2IP_2, A4D2P6) | pKd (GRIP1_4, Q9Y3R0) | pKd (IL16_1, Q14005) | pKd (Inadl_9, Q8NI35) | pKd (LDB3, O75112) | pKd (LNX1_1, Q8TBB1) | pKd (LNX2_2, Q8N448) | pKd (MAGI1_1, Q96QZ7) | pKd (MAGI2_6, Q86UL8) | pKd (MPP2, Q14168) | pKd (NHERF2_2, Q15599) | pKd (NHERF4_1, Q86UT5-2) | pKd (PARD3B_1, Q8TEW8) | pKd (PDZD7_3, Q9H5P4) | also measured |
| --- | --- | --- | --- | --- | --- | --- | --- | --- | --- | --- | --- | --- | --- | --- | --- | --- | --- | --- | --- | --- | --- |
| HLSTRQGTCV [ATRNL1, Q5VV63] | below the threshold | 3.51 | below the threshold | 4.33 | below the threshold | 4.28 | 4.05 | below the threshold | 3.63 | 4.1 | below the threshold | 4.34 | 5.01 | below the threshold | 4 | below the threshold | below the threshold | below the threshold | below the threshold | 4.2 | pKd (PTPN13_1, Q12923): below the threshold; pKd (SCRIB_3, Q14160): 4.13; pKd (SHANK1, Q9Y566): below the threshold; pKd (SIPA1L2, Q9P2F8): below the threshold; pKd (SNTG2, Q9NY99): 3.67 |
| VCMGDHWFDV [PRKN, O60260] | below the threshold | below the threshold | below the threshold | below the threshold | 3.83 | 3.53 | below the threshold | below the threshold | below the threshold | 3.69 | 3.9 | 3.94 | 4.57 | below the threshold | 4.19 | below the threshold | below the threshold | below the threshold | 4.78 | below the threshold | pKd (PTPN13_1, Q12923): below the threshold; pKd (SCRIB_3, Q14160): 3.98; pKd (SHANK1, Q9Y566): below the threshold; pKd (SIPA1L2, Q9P2F8): below the threshold; pKd (SNTG2, Q9NY99): below the threshold |
| QRYPGNQTTC [CCL24, O00175] | below the threshold | below the threshold | below the threshold | below the threshold | below the threshold | 3.48 | 4.08 | below the threshold | below the threshold | below the threshold | below the threshold | 3.78 | 3.58 | below the threshold | below the threshold | below the threshold | below the threshold | below the threshold | below the threshold | below the threshold | pKd (PTPN13_1, Q12923): below the threshold; pKd (SCRIB_3, Q14160): 3.64; pKd (SHANK1, Q9Y566): below the threshold; pKd (SIPA1L2, Q9P2F8): below the threshold; pKd (SNTG2, Q9NY99): below the threshold |
| HYPASPDSWV [CTNND2, Q9UQB3] | below the threshold | 4.34 | below the threshold | 4.37 | 3.61 | 3.76 | below the threshold | below the threshold | 4.24 | 3.9 | 3.74 | 4.12 | 4.72 | below the threshold | 5.37 | below the threshold | 3.84 | below the threshold | 3.52 | 4.3 | pKd (PTPN13_1, Q12923): below the threshold; pKd (SCRIB_3, Q14160): 4.4; pKd (SHANK1, Q9Y566): below the threshold; pKd (SIPA1L2, Q9P2F8): below the threshold; pKd (SNTG2, Q9NY99): 3.72 |
